No end group written: not given here.
T1: bradykinin peptide-oligo conjugate (synthetic, also: C-terminal Cys conjugated to 3' end of DNA oligo tail)
T1 chain: RPPGFSPFRC

T2: argipressin peptide-oligo conjugate (synthetic, UniProt P01185 P01185:20-28, ends and bridges not checked; also: oligonucleotide conjugate, site not given here)
T2 chain: CYFQNCPRG


What was measured:
[1] = target: T1, bradykinin peptide-oligo conjugate; experiment: no off-target hits; conditions: tags: C-terminal Cys conjugated to DNA oligo tail tethered to flow cell (Genscript)
[2] = target: T2, argipressin peptide-oligo conjugate; experiment: barcode ligation sequencing on flow cell, over 100 hits on argipressin foundations; conditions: tags: C-terminal DNA oligo tail tethered to flow cell (Genscript)

Binder | binding result [1] | binding result [2]
argipressin BCS aptamer 3 (ssDNA, 5'-phosphate) DNA: GAGAGTCCACGTGCACAGATAACGAATTCGTATAGGCGCAGCATACATCGGACATACATCCTGCGTGCATCCACCTTTGCATACTTGGCGTTCTTACCACCA | no binding | binds
argipressin BCS aptamer 2 (ssDNA, 5'-phosphate) DNA: GAGAGTTAGTCAGCAGGGATAACGAATTCGTATAGGCGCAGCATTTGATTCTGCTGCGTGCATACCCCTGTGTGTTATCCCTACTTGGCGTTCTTACCACCA | no binding | binds
argipressin BCS aptamer 1 (ssDNA, 5'-phosphate) DNA: GAGAGTAAAGCCGATAGGATAACGAATTCGTATAGGCGCAGGATGGACTTGATAACCTTCTGCTGCGTGCCTTGATGTGCTTACTTGGCGTTCTTACCACCA | no binding | binds

— patent US20210079557A1, “Methods and Compositions for Protein and Peptide Sequencing” (Google LLC, published 2021)
